Source: the RNAGym collection of RNA variant scans (doi:10.1093/molbev/msab373)

B1: Azoarcus group I ribozyme (parent)
chain: GUGCCUUGCGCCGGGAAACCACGCAAGGGAUGGUGUCAAAUUCGGCGAAACCUAAGCGCCCGCCCGGGCGUAUGGCAACGCCGAGCCAAGCUUCGGCGCCUGCGCCGAUGAAGGUGUAGAGACUAGACGGCACCCACCUAAGGCAAACGCUAUGGUGAAGGCAUAGUCCAGGGAGUGGCGAAAGUCACACAAACCGG

Variants of: B1
Test: reverse-splicing fitness (ratio to wild type); higher = more active; in vitro selection; Mg2+ level not given
Outline: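 An in vitro group I ribozyme library with randomized positions was T7-transcribed and gel-purified. In triplicate, 10 pmol RNA in EPPS pH 7.5 was reacted with 50 pmoles of a 30-nt RNA substrate for 1 h at 37 °C across several added MgCl2 levels (1–48 mM), then stopped with EDTA. Products were reverse transcribed from a substrate-complementary primer, PCR-amplified and sequenced (HiSeq 4000). Fitness is a variant's read proportion after selection over that before, normalised to wild type.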

Variant	reverse-splicing fitness
GUGCCUUGCGCCGGGAAACCACGCAAGGGAUGGUGUCAAAUUCGGCGAAACCUAAGCGCCCGCCCGGGCGUAUGGCAACGCGGAGCCAAGCUUCGGCGCCUGCGCCGAUGCAGGUGUAGUGACUAGACGGCACCCACCUAAGGCAAACGUUAUGGUGAAGGCAUAGUCAAGGGAGAGGCGAAAGUCACACAAACCGG [C82G A111C A120U C150U C169A U176A]	0.00515
GUGCCUUGCGCCGGGAAACCACGCAAGGGAUGGUGUCAAAUUCGGCGAAACCUAAGCGCCCGCCCGGGCGUAUGGCAACGCGGAGCCAAGCUUCGGCGCCUGCGCCGAUGCAGGUGUAGUGACUAGACGGCACCCACCUAAGGCAAACGUUAUGGUGAAGGCAUAGUCAAGGGAGCGGCGAAAGUCACACAAACCGG [C82G A111C A120U C150U C169A U176C]	0.00319
GUGCCUUGCGCCGGGAAACCACGCAAGGGAUGGUGUCAAAUUCGGCGAAACCUAAGCGCCCGCCCGGGCGUAUGGCAACGCGGAGCCAAGCUUCGGCGCCUGCGCCGAUGCAGGUGUAGUGACUAGACGGCACCCACCUAAGGCAAACGUUAUGGUGAAGGCAUAGUCAAGGGAGUGGCGAAAGUCACACAAACCGG [C82G A111C A120U C150U C169A]	0.00635
GUGCCUUGCGCCGGGAAACCACGCAAGGGAUGGUGUCAAAUUCGGCGAAACCUAAGCGCCCGCCCGGGCGUAUGGCAACGCGGAGCCAAGCUUCGGCGCCUGCGCCGAUGCAGGUGUAGUGACUAGACGGCACCCACCUAAGGCAAACGGUAUGGUGAAGGCAUAGUCCAGGGAGGGGCGAAAGUCACACAAACCGG [C82G A111C A120U C150G U176G]	0.00279
GUGCCUUGCGCCGGGAAACCACGCAAGGGAUGGUGUCAAAUUCGGCGAAACCUAAGCGCCCGCCCGGGCGUAUGGCAACGCGGAGCCAAGCUUCGGCGCCUGCGCCGAUGCAGGUGUAGUGACUAGACGGCACCCACCUAAGGCAAACGGUAUGGUGAAGGCAUAGUCCAGGGAGAGGCGAAAGUCACACAAACCGG [C82G A111C A120U C150G U176A]	0.00422
GUGCCUUGCGCCGGGAAACCACGCAAGGGAUGGUGUCAAAUUCGGCGAAACCUAAGCGCCCGCCCGGGCGUAUGGCAACGCGGAGCCAAGCUUCGGCGCCUGCGCCGAUGCAGGUGUAGUGACUAGACGGCACCCACCUAAGGCAAACGGUAUGGUGAAGGCAUAGUCCAGGGAGCGGCGAAAGUCACACAAACCGG [C82G A111C A120U C150G U176C]	0.00675
GUGCCUUGCGCCGGGAAACCACGCAAGGGAUGGUGUCAAAUUCGGCGAAACCUAAGCGCCCGCCCGGGCGUAUGGCAACGCGGAGCCAAGCUUCGGCGCCUGCGCCGAUGCAGGUGUAGUGACUAGACGGCACCCACCUAAGGCAAACGAUAUGGUGAAGGCAUAGUCCAGGGAGAGGCGAAAGUCACACAAACCGG [C82G A111C A120U C150A U176A]	0.00581
GUGCCUUGCGCCGGGAAACCACGCAAGGGAUGGUGUCAAAUUCGGCGAAACCUAAGCGCCCGCCCGGGCGUAUGGCAACGCGGAGCCAAGCUUCGGCGCCUGCGCCGAUGCAGGUGUAGUGACUAGACGGCACCCACCUAAGGCAAACGAUAUGGUGAAGGCAUAGUCCAGGGAGGGGCGAAAGUCACACAAACCGG [C82G A111C A120U C150A U176G]	0.00333
GUGCCUUGCGCCGGGAAACCACGCAAGGGAUGGUGUCAAAUUCGGCGAAACCUAAGCGCCCGCCCGGGCGUAUGGCAACGCGGAGCCAAGCUUCGGCGCCUGCGCCGAUGCAGGUGUAGUGACUAGACGGCACCCACCUAAGGCAAACGAUAUGGUGAAGGCAUAGUCCAGGGAGCGGCGAAAGUCACACAAACCGG [C82G A111C A120U C150A U176C]	0.00693
GUGCCUUGCGCCGGGAAACCACGCAAGGGAUGGUGUCAAAUUCGGCGAAACCUAAGCGCCCGCCCGGGCGUAUGGCAACGCGGAGCCAAGCUUCGGCGCCUGCGCCGAUGCAGGUGUAGUGACUAGACGGCACCCACCUAAGGCAAACGAUAUGGUGAAGGCAUAGUCGAGGGAGAGGCGAAAGUCACACAAACCGG [C82G A111C A120U C150A C169G U176A]	0.00466
GUGCCUUGCGCCGGGAAACCACGCAAGGGAUGGUGUCAAAUUCGGCGAAACCUAAGCGCCCGCCCGGGCGUAUGGCAACGCGGAGCCAAGCUUCGGCGCCUGCGCCGAUGCAGGUGUAGUGACUAGACGGCACCCACCUAAGGCAAACGAUAUGGUGAAGGCAUAGUCGAGGGAGCGGCGAAAGUCACACAAACCGG [C82G A111C A120U C150A C169G U176C]	0.00487
GUGCCUUGCGCCGGGAAACCACGCAAGGGAUGGUGUCAAAUUCGGCGAAACCUAAGCGCCCGCCCGGGCGUAUGGCAACGCGGAGCCAAGCUUCGGCGCCUGCGCCGAUGCAGGUGUAGUGACUAGACGGCACCCACCUAAGGCAAACGAUAUGGUGAAGGCAUAGUCGAGGGAGGGGCGAAAGUCACACAAACCGG [C82G A111C A120U C150A C169G U176G]	0.0024
GUGCCUUGCGCCGGGAAACCACGCAAGGGAUGGUGUCAAAUUCGGCGAAACCUAAGCGCCCGCCCGGGCGUAUGGCAACGCGGAGCCAAGCUUCGGCGCCUGCGCCGAUGCAGGUGUAGUGACUAGACGGCACCCACCUAAGGCAAACGGUAUGGUGAAGGCAUAGUCAAGGGAGCGGCGAAAGUCACACAAACCGG [C82G A111C A120U C150G C169A U176C]	0.0071
GUGCCUUGCGCCGGGAAACCACGCAAGGGAUGGUGUCAAAUUCGGCGAAACCUAAGCGCCCGCCCGGGCGUAUGGCAACGCGGAGCCAAGCUUCGGCGCCUGCGCCGAUGCAGGUGUAGUGACUAGACGGCACCCACCUAAGGCAAACGGUAUGGUGAAGGCAUAGUCAAGGGAGGGGCGAAAGUCACACAAACCGG [C82G A111C A120U C150G C169A U176G]	0.00331
GUGCCUUGCGCCGGGAAACCACGCAAGGGAUGGUGUCAAAUUCGGCGAAACCUAAGCGCCCGCCCGGGCGUAUGGCAACGCGGAGCCAAGCUUCGGCGCCUGCGCCGAUGCAGGUGUAGUGACUAGACGGCACCCACCUAAGGCAAACGGUAUGGUGAAGGCAUAGUCAAGGGAGAGGCGAAAGUCACACAAACCGG [C82G A111C A120U C150G C169A U176A]	0.00878
